Test [1] addresses T1, h5T4-His protein (human, UniProt Q13641 32-355, limits assumed).
T1 construct: also called His-tagged human 5T4 protein; not shown: His tag
T1 sequence (looked up): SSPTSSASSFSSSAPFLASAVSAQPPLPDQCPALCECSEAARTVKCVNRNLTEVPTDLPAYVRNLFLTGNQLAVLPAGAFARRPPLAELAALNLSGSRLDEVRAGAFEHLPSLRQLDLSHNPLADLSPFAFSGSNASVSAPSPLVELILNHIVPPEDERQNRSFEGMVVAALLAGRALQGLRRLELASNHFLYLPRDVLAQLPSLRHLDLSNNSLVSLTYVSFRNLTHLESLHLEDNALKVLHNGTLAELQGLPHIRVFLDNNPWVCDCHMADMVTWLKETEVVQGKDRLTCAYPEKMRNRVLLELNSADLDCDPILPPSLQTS
Put plainly: epitope binding assay, h5T4-His captured; binder = analyte 2; competitor (analyte 1): 32G1. The procedure:
(§1) Epitope binding assays were performed using ForteBio Octet system to determine whether two anti-5T4 antibodies target the same or overlapping epitopes. 1×HBS-EP+buffer (10 mM 4-(2-hydroxyethyl)-1-piperazineethanesulfonic acid (HEPES), 150 mM NaCl, 3 mM ethylenediaminetetraacetic acid (EDTA) and 0.05% P20, pH7.4) diluted from HBS-EP+buffer (10×) was used as the running buffer throughout the experiment. About 50 RU of h5T4-His protein was captured at a flow rate of 10 μL/min, and 200 nM of the tested antibody was injected at a flow rate of 30 μL/min to bind the ligand. Another comparison antibody was injected under the same conditions to determine whether the binding of different antibodies interfered with each other. The binding time was 180 s for each antibody.
(§2) The binding value of each antibody was obtained using Data Analysis HT 12.0. To quantify the interference of one antibody binding to another, a binding ratio was calculated to compare each pair of antibodies. The binding ratio is defined as the binding value of the second antibody (analyte 2), divided by the binding value of the first antibody (analyte 1). […] In general, antibody pairs that interfere with each other have the same or overlapping epitopes.

Test [2] addresses T1, h5T4-His protein. Put plainly: epitope binding assay, h5T4-His captured; binder = analyte 2; competitor (analyte 1): 32E3. The procedure: as §1, §2
For test [3], the target named is T1, h5T4-His protein. Put plainly: epitope binding assay, h5T4-His captured; binder = analyte 2; competitor (analyte 1): 35C6. On the procedure: as §1, §2
Test [4] has as its target T2, monkey (Macaca fascicularis) 5T4 expressed on CHO-S cells (CHO-fas5T4 cells) (monkey (Macaca fascicularis), UniProt Q4R8Y9 35-355).
T2 construct: also called monkey 5T4
T2 sequence: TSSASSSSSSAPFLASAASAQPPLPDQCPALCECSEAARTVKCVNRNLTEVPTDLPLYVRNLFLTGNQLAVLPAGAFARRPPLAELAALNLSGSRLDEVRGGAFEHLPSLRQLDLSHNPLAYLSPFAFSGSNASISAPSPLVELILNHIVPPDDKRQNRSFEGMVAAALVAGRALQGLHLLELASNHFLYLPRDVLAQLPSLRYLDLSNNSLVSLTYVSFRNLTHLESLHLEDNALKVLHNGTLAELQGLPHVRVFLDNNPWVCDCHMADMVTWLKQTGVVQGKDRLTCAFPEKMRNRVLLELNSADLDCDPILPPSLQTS
Kind of test: flow cytometry, CHO-fas5T4 cells. The procedure: (§3) CHO-h5T4 cells, CHO-m5T4 cells, CHO-fas5T4 cells or CHO-d5T4 cells were transferred to a 96-well plate at a density of 2×10⁵ cells/well respectively. The anti-5T4 antibodies were added to the 96-well plate, and incubated at 4° C. for 30 min. Then, the cells were incubated with the secondary antibody anti-hlgG-Fc-Alex Flour 647 (RL1-H) (Jackson ImmunoResearch Laboratories, Inc., Cat #: 109-606-170) at 4° C. in the dark for 15 minutes before flow cytometry analysis.
On the technique in general: Flow cytometry measures light scatter and fluorescence of single cells or particles in a stream.

Test [5] addresses T1, h5T4-His protein. Kind of test: epitope binding assay, h5T4-His captured; binder = analyte 2; competitor (analyte 1): 35B12. The procedure:
as §1, §2

In test [6] the target is T3, His-tagged 5T4 protein of monkey (fas5T4, ACRO Biosystems Inc., Cat #: TPG-C52H3) (monkey, UniProt Q4R8Y9 35-355).
T3 construct: Bought protein
T3 sequence: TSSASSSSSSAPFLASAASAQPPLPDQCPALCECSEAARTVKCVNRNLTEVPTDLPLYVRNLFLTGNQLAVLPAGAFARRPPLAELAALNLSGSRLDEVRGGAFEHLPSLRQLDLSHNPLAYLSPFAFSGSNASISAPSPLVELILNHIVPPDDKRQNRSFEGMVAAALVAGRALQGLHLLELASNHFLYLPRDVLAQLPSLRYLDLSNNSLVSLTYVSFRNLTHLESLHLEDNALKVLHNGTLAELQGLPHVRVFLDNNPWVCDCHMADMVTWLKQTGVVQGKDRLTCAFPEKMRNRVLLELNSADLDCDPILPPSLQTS
Put plainly: SPR (Biacore 8K), antibody captured on Protein A chip, His-tagged 5T4 as analyte. On the procedure: (§4) Purified anti-5T4 antibodies were diluted to 2 μg/mL and then injected into the Biacore™ 8K biosensor at 10 μL/min for about 50 seconds to achieve a desired protein density (e.g., about 50 response units (RU)). His-tagged 5T4 protein at a concentration of 200 nM was then injected at 30 μL/min for 180 seconds. Dissociation was monitored for 400 seconds. The chip was regenerated after the last injection of each titration with Glycine (pH 2.0), 30 μL/min for 30 seconds. For ISO control, an antibody targeting an irrelevant target protein was used.
(§5) As a person of ordinary skill in the art would understand, the same method with appropriate adjustments for parameters (e.g., antibody concentration) was performed for each tested antibody.
A general note: In SPR one partner is held on a chip, and binding of the other changes the refractive index at the surface.

Test [7] addresses T4, His-tagged 5T4 protein of human (h5T4, ACRO Biosystems Inc., Cat #: TPG-H52E5) (human, UniProt Q13641 32-355).
T4 construct: Bought protein; not shown: His tag
T4 sequence (looked up): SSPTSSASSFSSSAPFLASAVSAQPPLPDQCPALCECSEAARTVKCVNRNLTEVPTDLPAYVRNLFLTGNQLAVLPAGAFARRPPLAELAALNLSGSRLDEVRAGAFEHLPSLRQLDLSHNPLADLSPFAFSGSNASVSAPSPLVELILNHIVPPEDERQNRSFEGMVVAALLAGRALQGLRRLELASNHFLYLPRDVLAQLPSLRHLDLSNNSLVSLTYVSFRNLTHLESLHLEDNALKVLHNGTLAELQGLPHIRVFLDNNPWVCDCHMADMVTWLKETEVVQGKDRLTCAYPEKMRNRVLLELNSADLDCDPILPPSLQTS
Described as above. On the procedure: as §4, §5

In test [8] the target is T5, His-tagged 5T4 protein of mouse (m5T4, ACRO Biosystems Inc., Cat #: TPG-M52H3) (mouse, UniProt Q9Z0L0 32-361, limits assumed).
T5 construct: Bought protein; not shown: His tag
T5 sequence (looked up): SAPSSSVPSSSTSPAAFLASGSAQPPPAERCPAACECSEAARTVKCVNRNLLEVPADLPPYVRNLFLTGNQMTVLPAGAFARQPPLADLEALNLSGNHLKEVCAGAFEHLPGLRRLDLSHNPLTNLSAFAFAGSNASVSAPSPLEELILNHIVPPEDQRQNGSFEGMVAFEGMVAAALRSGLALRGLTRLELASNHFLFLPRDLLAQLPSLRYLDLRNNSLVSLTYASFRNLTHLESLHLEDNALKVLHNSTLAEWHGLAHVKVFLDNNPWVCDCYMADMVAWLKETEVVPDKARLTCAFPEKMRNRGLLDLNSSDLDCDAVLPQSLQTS
The test is described as above. On the procedure:
as §4, §5

Test [9] has as its target T6, dog 5T4 expressed on CHO-S cells (CHO-d5T4 cells) (dog).
T6 chain: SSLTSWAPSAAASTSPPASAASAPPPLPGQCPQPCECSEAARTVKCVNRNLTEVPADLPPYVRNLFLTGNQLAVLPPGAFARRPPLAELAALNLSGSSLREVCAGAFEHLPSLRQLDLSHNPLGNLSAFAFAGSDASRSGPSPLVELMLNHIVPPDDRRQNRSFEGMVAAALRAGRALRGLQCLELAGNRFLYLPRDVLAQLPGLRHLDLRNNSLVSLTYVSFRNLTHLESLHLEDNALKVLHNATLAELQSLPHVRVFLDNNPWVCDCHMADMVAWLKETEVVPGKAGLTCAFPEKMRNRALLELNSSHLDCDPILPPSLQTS
Put plainly: flow cytometry, CHO-d5T4 cells. On the procedure: as §3

The target in test [10] is T7, human 5T4 expressed on CHO-S cells (CHO-h5T4 cells) (human, UniProt Q13641 32-355).
T7 sequence: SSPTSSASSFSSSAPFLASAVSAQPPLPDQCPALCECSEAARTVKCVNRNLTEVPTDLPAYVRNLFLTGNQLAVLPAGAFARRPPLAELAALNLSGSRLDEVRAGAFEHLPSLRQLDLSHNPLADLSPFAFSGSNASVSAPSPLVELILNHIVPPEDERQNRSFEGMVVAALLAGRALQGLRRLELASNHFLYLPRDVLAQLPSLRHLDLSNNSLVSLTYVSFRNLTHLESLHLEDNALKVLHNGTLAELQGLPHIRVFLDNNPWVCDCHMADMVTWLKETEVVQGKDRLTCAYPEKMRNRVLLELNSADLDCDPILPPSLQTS
Kind of test: flow cytometry, CHO-h5T4 cells. The procedure:
as §3

In test [11] the target is T1, h5T4-His protein. Put plainly: epitope binding assay, h5T4-His captured; binder = analyte 2; competitor (analyte 1): 32G8. On the procedure: as §1, §2
Test [12] addresses T8, mouse 5T4 expressed on CHO-S cells (CHO-m5T4 cells) (mouse, UniProt Q9Z0L0 32-361).
T8 sequence: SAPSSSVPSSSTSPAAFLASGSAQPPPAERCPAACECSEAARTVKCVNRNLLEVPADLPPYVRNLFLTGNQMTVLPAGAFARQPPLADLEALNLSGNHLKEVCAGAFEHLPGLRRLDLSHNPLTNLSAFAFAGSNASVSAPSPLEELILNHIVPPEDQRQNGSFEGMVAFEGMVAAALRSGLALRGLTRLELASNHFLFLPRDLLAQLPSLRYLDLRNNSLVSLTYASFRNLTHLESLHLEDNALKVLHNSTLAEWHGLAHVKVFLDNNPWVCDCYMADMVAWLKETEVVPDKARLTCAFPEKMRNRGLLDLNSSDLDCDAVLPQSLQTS
Kind of test: flow cytometry, CHO-m5T4 cells. On the procedure:
as §3

In test [13] the target is T1, h5T4-His protein. Put plainly: epitope binding assay, h5T4-His captured; binder = analyte 2; competitor (analyte 1): 31G4. The procedure:
as §1, §2

One may read the Kd as the constant that tells how readily two partners part at equilibrium. The koff is a measure of how fast the partners let go of each other. The term kon denotes the rate constant with which the complex forms.

B1: 35B12 (antibody, V domains shown)
VH: QVQLQESGPRLVKPSETLSLTCTVSGGSISSNDWSWIRQPPGKGLEWIGEISYSGITNYNPSLKSRVSISVETSKNHFSLNLSSVTAADTAVYYCATAGGSSGWYDYWFDPWGQGTLVTVSS
VL: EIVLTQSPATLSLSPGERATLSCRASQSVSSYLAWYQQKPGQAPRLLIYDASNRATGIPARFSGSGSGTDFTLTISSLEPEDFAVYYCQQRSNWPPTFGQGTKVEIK
notes: also called anti-5T4 antibody 35B12
Consider B1, for which the binding ratio in the test with h5T4-His protein [1] was determined as 0.05; with h5T4-His protein [2], 0.97; in the test with h5T4-His protein [3], 0.04; with h5T4-His protein [5] it was 0; with h5T4-His protein [11] it was 0.91; with h5T4-His protein [13] it was 0.87. The “Percentage of Positive Cells” value is 52.1% in test [4], 76% in test [9], 78% in test [10] and 54.1% in [12]. Moreover, the Kd in [6] was 0.198 µM; in test [7], 0.122 µM; in test [8] it was 0.0722 µM. Further, the dissociation rate constant (koff) in [6] was found to be 0.0219 s⁻¹; in [7], 0.0215 s⁻¹; in test [8], 0.00366 s⁻¹. Besides, the results for the kon in test [6], in [7] and in test [8] were 111000 M⁻¹ s⁻¹, 176000 M⁻¹ s⁻¹ and 50700 M⁻¹ s⁻¹, respectively.

B2: 32G8 (antibody, V domains shown)
VH: QVQLQESGPGLLQPSETLSLTCFVSGASINSSGHYWGWIRQPPGKGLEWIGSIYFSGNTNYNPSLKSRVTIAVDTSKNQFSLKLSSVTAADTAVYYCVRRNGRYCSTISCYDDYWGQGTLVTVSS
VL: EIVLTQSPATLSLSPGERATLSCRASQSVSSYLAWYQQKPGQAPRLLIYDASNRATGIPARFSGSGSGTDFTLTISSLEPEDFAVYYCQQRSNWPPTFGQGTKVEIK
notes: also called anti-5T4 antibody 32G8
Regarding B2, the binding ratio with h5T4-His protein [1] is 1.01; with h5T4-His protein [2], 0.04; in the test with h5T4-His protein [3], 1.01; with h5T4-His protein [5] it was 0.96; with h5T4-His protein [11], 0.11; with h5T4-His protein [13], 0.85. For the same molecule, the “Percentage of Positive Cells” value came out at 52.6% in test [4], 62.8% in [9], 61.5% in [10] and 0.7% in test [12]. In addition, the dissociation constant Kd in test [6] was found to be 0.146 µM; in test [7], 0.0427 µM. For the same molecule, the koff in test [6] was determined as 0.0143 s⁻¹; in test [7] it was 0.00529 s⁻¹. In addition, the association rate constant (kon) in [6] was 98000 M⁻¹ s⁻¹; in test [7], 124000 M⁻¹ s⁻¹. The binding result in test [8] is on record as “no binding (tested: 200 nM)”; in test [12], “no binding”.

The values are drawn from US20260241018A1 (BIOCYTOGEN PHARMACEUTICALS BEIJING, published 2026).
